Target: SARS-CoV-2 omicron突变株假病毒 (SARS-CoV-2 omicron variant)
Test: cell-based or functional assay

B1: JS016-40 (antibody, V domains shown)
VH: EVQLVESGGGLVQPGGSLRLSCAASGFTVGWNYMSWVRQAPGKGLEWVSVIYPGGTTFYADSVKGRFTISRDNSMNTLFLQMNSLRAEDTAVYYCARVLPMYGDYLDYWGQGTLVTVSS
VL: DIVMTQSPSSLSASVGDRVTITCRASQNIERYLNWYQQKPGKAPKLLIYAASSLQSGVPSRFSGSGSGTDFTLTISSLQPEDFATYYCQQSASSTPEYTFGQGTKLEIKR
With B1 the “IC50(ng/ml), pseudovirus neutralisation, luciferase reporter” value (shortened to “IC50(ng/ml), pseudovirus neutralisation”) was 24.6 ng/mL.

B2: JS016-77-YTE (antibody, V domains shown)
VH: EVQLVESGGGLVQPGGSLRLSCAASGFVVQANYMSWVRQAPGKGLEWVSVIYPGGSTFYADSVKGRFTISRDNSMNTLFLQMNSLRAEDTAVYYCARVLPMYGDYLDYWGQGTLVTVSS
VL: DIVMTQSPSSLSASVGDRVTITCRASQNILPYLNWYQQKPGKAPKLLIYAASSLQSGVPSRFSGSGSGTDFTLTISSLQPEDFATYYCQQSSSAVPEYTFGQGTKLEIKR
For B2, the “IC50(ng/ml), pseudovirus neutralisation” value was 776 ng/mL.

B3: JS016-41-YTE (antibody, V domains shown)
VH: EVQLVESGGGLVQPGGSLRLSCAASGFVVQANYMSWVRQAPGKGLEWVSVIYPGGSTFYADSVKGRFTISRDNSMNTLFLQMNSLRAEDTAVYYCARVLPMYGDYLDYWGQGTLVTVSS
VL: DIVMTQSPSSLSASVGDRVTITCRASQNIERYLNWYQQKPGKAPKLLIYAASSLQSGVPSRFSGSGSGTDFTLTISSLQPEDFATYYCQQSASSTPEYTFGQGTKLEIKR
In the case of B3, the “IC50(ng/ml), pseudovirus neutralisation” value is reported as 17.6 ng/mL.
